# Measured values: patent publication EP4671273A1 (Anaveon AG, dated 2025)
# Target: human IL-21 receptor (IL-21R) on cells (human, UniProt Q9HBE5 20-538; P31785 23-369)
# Test: cell-based or functional assay
# human IL-21 receptor (IL-21R) on cells, sequence (Q9HBE5 20-538, chain 1 of 2): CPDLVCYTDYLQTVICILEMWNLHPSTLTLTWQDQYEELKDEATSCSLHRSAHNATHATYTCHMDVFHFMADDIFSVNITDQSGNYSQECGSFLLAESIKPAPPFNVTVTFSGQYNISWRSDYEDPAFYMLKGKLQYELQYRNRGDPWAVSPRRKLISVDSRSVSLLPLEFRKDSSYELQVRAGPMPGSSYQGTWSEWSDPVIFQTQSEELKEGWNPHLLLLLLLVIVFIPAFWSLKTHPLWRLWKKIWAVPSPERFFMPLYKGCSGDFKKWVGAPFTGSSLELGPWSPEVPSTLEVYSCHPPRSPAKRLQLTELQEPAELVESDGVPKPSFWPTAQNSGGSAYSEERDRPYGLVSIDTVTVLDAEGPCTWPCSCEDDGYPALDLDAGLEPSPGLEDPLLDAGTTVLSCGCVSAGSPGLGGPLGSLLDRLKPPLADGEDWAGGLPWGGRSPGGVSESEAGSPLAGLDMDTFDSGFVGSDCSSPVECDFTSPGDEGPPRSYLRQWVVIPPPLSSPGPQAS
# human IL-21 receptor (IL-21R) on cells, sequence (P31785 23-369, chain 2 of 2): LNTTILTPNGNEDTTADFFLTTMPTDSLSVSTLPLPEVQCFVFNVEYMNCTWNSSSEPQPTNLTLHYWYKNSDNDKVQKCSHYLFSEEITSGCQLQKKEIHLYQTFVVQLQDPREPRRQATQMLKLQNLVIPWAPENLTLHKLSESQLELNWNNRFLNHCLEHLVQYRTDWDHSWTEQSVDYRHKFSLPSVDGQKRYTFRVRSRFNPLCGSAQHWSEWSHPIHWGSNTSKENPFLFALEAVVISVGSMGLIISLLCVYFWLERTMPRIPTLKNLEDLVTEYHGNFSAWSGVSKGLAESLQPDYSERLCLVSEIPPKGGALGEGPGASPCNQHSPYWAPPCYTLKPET
Binder,"EC50B, pSTAT3+ Jurkat PD-1 cells, PD-1 blocked","EC50NB, pSTAT3+ Jurkat PD-1 cells"
"EJD551 (bispecific antibody, human IgG1, kappa, lambda, L234A L235A) heavy 1: EVQLLESGGGLVQPGGSLRLSCAASGFTFSINAMTWVRQAPGKGLEWVSTISGSGFSTYYADSLKGRFTISRDNSKNTLYLQMNSLRAEDTAVYYCAKEVYGDYWGQGTLVTVSSASTKGPSVFPLAPSSKSTSGGTAALGCLVKDYFPEPVTVSWNSGALTSGVHTFPAVLQSSGLYSLSSVVTVPSSSLGTQTYICNVNHKPSNTKVDKRVEPKSCDKTHTCPPCPAPEAAGGPSVFLFPPKPKDTLMISRTPEVTCVVVDVSHEDPEVKFNWYVDGVEVHNAKTKPREEQYNSTYRVVSVLTVLHQDWLNGKEYKCKVSNKALAAPIEKTISKAKGQPREPQVCTLPPSREEMTKNQVSLSCAVKGFYPSDIAVEWESNGQPENNYKTTPPVLDSDGSFFLVSKLTVDKSRWQQGNVFSCSVMHEALHNHYTQKSLSLSPGK light: not shown heavy 2: QVQLQESGPGLVKPSETLSLTCTVSGGSISSDYWGWIRQPPGKGLEWIGYISYRGSTNYNPSLKSRVTISVDTSRNQFSLKLSSVTAADTAVYYCARSAGVTDFDWWGQGTLVTVSSASTKGPSVFPLAPSSKSTSGGTAALGCLVKDYFPEPVTVSWNSGALTSGVHTFPAVLQSSGLYSLSSVVTVPSSSLGTQTYICNVNHKPSNTKVDKRVEPKSCDKTHTCPPCPAPEAAGGPSVFLFPPKPKDTLMISRTPEVTCVVVDVSHEDPEVKFNWYVDGVEVHNAKTKPREEQYNSTYRVVSVLTVLHQDWLNGKEYKCKVSNKALAAPIEKTISKAKGQPREPQVYTLPPCREEMTKNQVSLWCLVKGFYPSDIAVEWESNGQPENNYKTTPPVLDSDGSFFLYSKLTVDKSRWQQGNVFSCSVMHEALHNHYTQKSLSLSPGK not shown",1.06 nM,0.016 nM
"ETR048 (bispecific antibody, human IgG1, kappa, lambda, L234A L235A) heavy 1: EVQLLESGGGLVQPGGSLRLSCAASGFTFSINAMTWVRQAPGKGLEWVSTISGSGFSTYYADSLKGRFTISRDNSKNTLYLQMNSLRAEDTAVYYCAKEVYGDYWGQGTLVTVSSASTKGPSVFPLAPSSKSTSGGTAALGCLVKDYFPEPVTVSWNSGALTSGVHTFPAVLQSSGLYSLSSVVTVPSSSLGTQTYICNVNHKPSNTKVDKRVEPKSCDKTHTCPPCPAPEAAGGPSVFLFPPKPKDTLMISRTPEVTCVVVDVSHEDPEVKFNWYVDGVEVHNAKTKPREEQYNSTYRVVSVLTVLHQDWLNGKEYKCKVSNKALAAPIEKTISKAKGQPREPQVCTLPPSREEMTKNQVSLSCAVKGFYPSDIAVEWESNGQPENNYKTTPPVLDSDGSFFLVSKLTVDKSRWQQGNVFSCSVMHEALHNHYTQKSLSLSPGK light 1: not shown heavy 2: QVQLQESGPGLVKPSETLSLTCTVSGGSISSDYWGWIRQPPGKGLEWIGYISYRGSTNYNPSLKSRVTISVDTSRNQFSLKLSSVTAADTAVYYCARSAGVTDFDWWGQGTLVTVSSASTKGPSVFPLAPSSKSTSGGTAALGCLVKDYFPEPVTVSWNSGALTSGVHTFPAVLQSSGLYSLSSVVTVPSSSLGTQTYICNVNHKPSNTKVDKRVEPKSCDKTHTCPPCPAPEAAGGPSVFLFPPKPKDTLMISRTPEVTCVVVDVSHEDPEVKFNWYVDGVEVHNAKTKPREEQYNSTYRVVSVLTVLHQDWLNGKEYKCKVSNKALAAPIEKTISKAKGQPREPQVYTLPPCREEMTKNQVSLWCLVKGFYPSDIAVEWESNGQPENNYKTTPPVLDSDGSFFLYSKLTVDKSRWQQGNVFSCSVMHEALHNHYTQKSLSLSPGK light 2: not shown",0.751 nM,0.012 nM
"BBU753 (bispecific antibody, human IgG1, kappa, lambda, L234A L235A) heavy 1: EVQLLESGGGLVQPGGSLRLSCAASGFTFSINAMTWVRQAPGKGLEWVSTISGSGFSTYYADSLKGRFTISRDNSKNTLYLQMNSLRAEDTAVYYCAKEVYGDYWGQGTLVTVSSASTKGPSVFPLAPSSKSTSGGTAALGCLVKDYFPEPVTVSWNSGALTSGVHTFPAVLQSSGLYSLSSVVTVPSSSLGTQTYICNVNHKPSNTKVDKRVEPKSCDKTHTCPPCPAPEAAGGPSVFLFPPKPKDTLMISRTPEVTCVVVDVSHEDPEVKFNWYVDGVEVHNAKTKPREEQYNSTYRVVSVLTVLHQDWLNGKEYKCKVSNKALAAPIEKTISKAKGQPREPQVCTLPPSREEMTKNQVSLSCAVKGFYPSDIAVEWESNGQPENNYKTTPPVLDSDGSFFLVSKLTVDKSRWQQGNVFSCSVMHEALHNHYTQKSLSLSPGK light 1: not shown heavy 2: QVQLQESGPGLVKPSETLSLTCTVSGGSISSDFWGWIRQPPGKGLEWIGYISSRGSTNYNPSLKRRVTISVDTSRNQFSLKLSSVTAADTAVYYCARSAGVADFDFWGQGTLVTVSSASTKGPSVFPLAPSSKSTSGGTAALGCLVKDYFPEPVTVSWNSGALTSGVHTFPAVLQSSGLYSLSSVVTVPSSSLGTQTYICNVNHKPSNTKVDKRVEPKSCDKTHTCPPCPAPEAAGGPSVFLFPPKPKDTLMISRTPEVTCVVVDVSHEDPEVKFNWYVDGVEVHNAKTKPREEQYNSTYRVVSVLTVLHQDWLNGKEYKCKVSNKALAAPIEKTISKAKGQPREPQVYTLPPCREEMTKNQVSLWCLVKGFYPSDIAVEWESNGQPENNYKTTPPVLDSDGSFFLYSKLTVDKSRWQQGNVFSCSVMHEALHNHYTQKSLSLSPGK light 2: not shown",0.312 nM,0.015 nM
"GSV075 (bispecific antibody, human IgG1, kappa, lambda, L234A L235A) heavy 1: EVQLLESGGGLVQPGGSLRLSCAASGFTFSINAMTWVRQAPGKGLEWVSTISGSGFSTYYADSLKGRFTISRDNSKNTLYLQMNSLRAEDTAVYYCAKEVYGDYWGQGTLVTVSSASTKGPSVFPLAPSSKSTSGGTAALGCLVKDYFPEPVTVSWNSGALTSGVHTFPAVLQSSGLYSLSSVVTVPSSSLGTQTYICNVNHKPSNTKVDKRVEPKSCDKTHTCPPCPAPEAAGGPSVFLFPPKPKDTLMISRTPEVTCVVVDVSHEDPEVKFNWYVDGVEVHNAKTKPREEQYNSTYRVVSVLTVLHQDWLNGKEYKCKVSNKALAAPIEKTISKAKGQPREPQVCTLPPSREEMTKNQVSLSCAVKGFYPSDIAVEWESNGQPENNYKTTPPVLDSDGSFFLVSKLTVDKSRWQQGNVFSCSVMHEALHNHYTQKSLSLSPGK light 1: not shown heavy 2: QVQLQESGPGLVKPSETLSLTCTVSGGSISSDYWGWIRQPPGKGLEWIGYISYRGSTNYNPSLKSRVTISVDTSRNQFSLKLSSVTAADTAVYYCARSAGVTDFDWWGQGTLVTVSSASTKGPSVFPLAPSSKSTSGGTAALGCLVKDYFPEPVTVSWNSGALTSGVHTFPAVLQSSGLYSLSSVVTVPSSSLGTQTYICNVNHKPSNTKVDKRVEPKSCDKTHTCPPCPAPEAAGGPSVFLFPPKPKDTLMISRTPEVTCVVVDVSHEDPEVKFNWYVDGVEVHNAKTKPREEQYNSTYRVVSVLTVLHQDWLNGKEYKCKVSNKALAAPIEKTISKAKGQPREPQVYTLPPCREEMTKNQVSLWCLVKGFYPSDIAVEWESNGQPENNYKTTPPVLDSDGSFFLYSKLTVDKSRWQQGNVFSCSVMHEALHNHYTQKSLSLSPGK light 2: not shown",0.627 nM,0.023 nM
"GMH764 (bispecific antibody, human IgG1, kappa, lambda, L234A L235A) heavy 1: EVQLLESGGGLVQPGGSLRLSCAASGFTFSINAMTWVRQAPGKGLEWVSTISGSGFSTYYADSLKGRFTISRDNSKNTLYLQMNSLRAEDTAVYYCAKEVYGDYWGQGTLVTVSSASTKGPSVFPLAPSSKSTSGGTAALGCLVKDYFPEPVTVSWNSGALTSGVHTFPAVLQSSGLYSLSSVVTVPSSSLGTQTYICNVNHKPSNTKVDKRVEPKSCDKTHTCPPCPAPEAAGGPSVFLFPPKPKDTLMISRTPEVTCVVVDVSHEDPEVKFNWYVDGVEVHNAKTKPREEQYNSTYRVVSVLTVLHQDWLNGKEYKCKVSNKALAAPIEKTISKAKGQPREPQVCTLPPSREEMTKNQVSLSCAVKGFYPSDIAVEWESNGQPENNYKTTPPVLDSDGSFFLVSKLTVDKSRWQQGNVFSCSVMHEALHNHYTQKSLSLSPGK light 1: not shown heavy 2: QVQLQESGPGLVKPSETLSLTCTVSGGSISSDYWGWIRQPPGKGLEWIGYISYRGSTNYNPSLKSRVTISVDTSRNQFSLKLSSVTAADTAVYYCARSAGVTDFDWWGQGTLVTVSSASTKGPSVFPLAPSSKSTSGGTAALGCLVKDYFPEPVTVSWNSGALTSGVHTFPAVLQSSGLYSLSSVVTVPSSSLGTQTYICNVNHKPSNTKVDKRVEPKSCDKTHTCPPCPAPEAAGGPSVFLFPPKPKDTLMISRTPEVTCVVVDVSHEDPEVKFNWYVDGVEVHNAKTKPREEQYNSTYRVVSVLTVLHQDWLNGKEYKCKVSNKALAAPIEKTISKAKGQPREPQVYTLPPCREEMTKNQVSLWCLVKGFYPSDIAVEWESNGQPENNYKTTPPVLDSDGSFFLYSKLTVDKSRWQQGNVFSCSVMHEALHNHYTQKSLSLSPGK light 2: not shown",0.872 nM,0.013 nM
"ECW089 (bispecific antibody, human IgG1, kappa, lambda, L234A L235A) heavy 1: EVQLLESGGGLVQPGGSLRLSCAASGFTFSINAMTWVRQAPGKGLEWVSTISGSGFSTYYADSLKGRFTISRDNSKNTLYLQMNSLRAEDTAVYYCAKEVYGDYWGQGTLVTVSSASTKGPSVFPLAPSSKSTSGGTAALGCLVKDYFPEPVTVSWNSGALTSGVHTFPAVLQSSGLYSLSSVVTVPSSSLGTQTYICNVNHKPSNTKVDKRVEPKSCDKTHTCPPCPAPEAAGGPSVFLFPPKPKDTLMISRTPEVTCVVVDVSHEDPEVKFNWYVDGVEVHNAKTKPREEQYNSTYRVVSVLTVLHQDWLNGKEYKCKVSNKALAAPIEKTISKAKGQPREPQVCTLPPSREEMTKNQVSLSCAVKGFYPSDIAVEWESNGQPENNYKTTPPVLDSDGSFFLVSKLTVDKSRWQQGNVFSCSVMHEALHNHYTQKSLSLSPGK light 1: not shown heavy 2: QVQLQESGPGLVKPSETLSLTCTVSGGSISSDYWGWIRQPPGKGLEWIGYISYRGSTNYNPSLKSRVTISVDTSRNQFSLKLSSVTAADTAVYYCARSAGVTDFDAWGQGTLVTVSSASTKGPSVFPLAPSSKSTSGGTAALGCLVKDYFPEPVTVSWNSGALTSGVHTFPAVLQSSGLYSLSSVVTVPSSSLGTQTYICNVNHKPSNTKVDKRVEPKSCDKTHTCPPCPAPEAAGGPSVFLFPPKPKDTLMISRTPEVTCVVVDVSHEDPEVKFNWYVDGVEVHNAKTKPREEQYNSTYRVVSVLTVLHQDWLNGKEYKCKVSNKALAAPIEKTISKAKGQPREPQVYTLPPCREEMTKNQVSLWCLVKGFYPSDIAVEWESNGQPENNYKTTPPVLDSDGSFFLYSKLTVDKSRWQQGNVFSCSVMHEALHNHYTQKSLSLSPGK light 2: not shown",0.13 nM,0.0963 nM
